Measurements from publication PMC7677505.

Experiments:
[1] = target: Endogenous BAFF (human (endogenous in serum, CSF, cord blood)); experiment: SEC; cord blood sera in Hepes pH 8.2, 30 mM NaCl, 10 ug/ml BSA; fractions lyophilized; ELISA at pH 5.5 and BAFFR:Fas reporter cells with antibody 2.81
[2] = target: Endogenous BAFF (human (endogenous in serum, CSF, cord blood)); experiment: SEC; endogenous BAFF affinity-purified on atacicept from CSF or from serum of a CVID patient, SEC at pH 8.2; ELISA with capture at pH 5.5 and BAFFR:Fas reporter cells
[3] = target: Endogenous BAFF (human (endogenous in serum, CSF, cord blood)); experiment: SEC; BAFFR-deficient human serum on Superdex S200 Increase in Hepes buffer pH 8.2; BAFF activity of fractions read on BCMA:Fas reporter cells; fractions 15-17 pooled, concentrated and run again
[4] = target: Endogenous BAFF (human (endogenous in serum, CSF, cord blood)); experiment: SEC; 8-fold concentrated pool of CSF of multiple sclerosis patients at pH 8.2, 30 mM NaCl; also after depletion on anti-APRIL mAb 104; ELISA with capture at pH 5.5 and BAFFR:Fas reporter cells
[5] = target: Endogenous BAFF (human (endogenous in serum, CSF, cord blood)); experiment: SEC; adult human sera (normal, CVID, BAFFR-deficient, BTK-deficient) in Hepes pH 8.2, 30 mM NaCl, 10 ug/ml BSA; fractions lyophilized; ELISA at pH 5.5 and BAFFR:Fas reporter cells with antibody 2.81

stoichiometry N [1]: 3 | stoichiometry N [2]: 3 | stoichiometry N [3]: 2.7 | stoichiometry N [4]: 3 | stoichiometry N [5]: 3
Substance: Endogenous BAFF (ligand)
